Measurements as given in patent US20110280881A1, “NOVEL ANTI-HSP90 MONOCLONAL ANTIBODY” (RIKEN, priority 2010, published 2011).

B1: 6H8: anti-HSP90 monoclonal antibody produced by hybridoma FERM BP-11222; epitope … (antibody)
VH: QVQLQQSGPELVKPGASVRISCKASGYTFTSYYIHWVKQRPGQGLEWIGWIYPGNVNTKYNEKFKGKATLTADKSSSTAYMQLSSLTSEDSAVYFCARYGNYPFAYWGQGTLVTVSAAKTTAPSVYPLAPVCGDTTGSSVTLGCLVKGYF
VL: DVVMTQTPLSLPVSLGDQASISCRSSQSLVHSNGNTYLHWYLQKPGQSPKLLIYKVSNRFSGVPDRFSGSGSGTDFTLKISRVEAEDLGVYFCSQSTHVPPTFGGGTKLEIKRADAAPTVSIFPPSSEQLTSGGASVVCFLNNFYPKDINVKWKIDGS
B2: 6H8-OVA: high molecular weight conjugate of the 6H8 antibody and maleimide-activated OVA (conjugate)
VH: B1 VH
VL: B1 VL
chain: GSIGAASMEFCFDVFKELKVHHANENIFYCPIAIMSALAMVYLGAKDSTRTQINKVVRFDKLPGFGDSIEAQCGTSVNVHSSLRDILNQITKPNDVYSFSLASRLYAEERYPILPEYLQCVKELYRGGLEPINFQTAADQARELINSWVESQTNGIIRNVLQPSSVDSQTAMVLVNAIVFKGLWEKAFKDEDTQAMPFRVTEQESKPVQMMYQIGLFRVASMASEKMKILELPFASGTMSMLVLLPDEVSGLEQLESIINFEKLTEWTSSNVMEERKIKVYLPRMKMEEKYNLTSVLMAMGITDVFSSSANLSGISSAESLKISQAVHAAHAEINEAGREVVGSAEAGVDAASVSEEFRADHPFLFCIKHIATNAVLFFGRCVSP

Key:
[1] = tested on: cell surface HSP90 on DC2.4 cells; experiment: Inhibition of 6H8-OVA cross-presentation by pre-treatment of DC2.4 cells with antibodies; assay type: cell-based; details: antibody 20 μg/ml 15 minutes, then 6H8-OVA 3 or 1 μg/ml, IFNγ ELISA
Method: Pellets of DC2.4 cells (1.5×10^6 cells) were incubated with 20 μg/ml of each antibody [6H8D2 (6H8), 2A6E9 (2A6) or 4B6G12 (456)] at 37° C. with 5% CO2 for 15 minutes. Subsequently, 6H8-OVA was added to a concentration of 3 or 1 μg/ml, and the pellets were incubated at 37° C. with 5% CO2 for 3 hours. After being washed to remove the unreacted antibody and 6H8-OVA, the cells were fixed in 0.5% para-formaldehyde. These cells (1×10^4 cells) were co-cultured with 1×10^5 OT-I CD8^+ T cells in a 96-well round-bottomed plate at 37° C. with 5% CO2; the supernatant was recovered as appropriate and assayed for IFNγ according to a standard ELISA method.

[2] = tested on: cell surface HSP90 on DC2.4 cells; experiment: Internalization of cell surface HSP90 by the 6H8 antibody; assay type: cell-based
Method: The behavior of the 6H8-HSP90 complex after being recognized by the 6H8 antibody was examined as described below. First, DC2.4 cells were incubated in the presence of biotinylated 6H8 (1 μg/ml) on ice for 30 minutes and washed. Next, the cells were incubated at 37° C. with 5% CO2 for 0, 10, 20, 30, or 60 minutes. After cooling on ice, the cells were stained with PE-Cy5-streptavidin and analyzed by FACS. The results are shown in the left panel of FIG. 4B. Shown in the right panel are bar graphs for the MFI of each group.
Furthermore, immunostaining was performed to compare the behavior of HSP90 with the behaviors of the MHC class 1 molecule H-2K^b and the MHC class II molecule I-A^b. First, DC2.4 cells were incubated in the presence of the biotinylated 6H8 antibody and the FITC-labeled anti-H-2K^b antibody or anti-I-A^b antibody (Pharmingen, the antibody was used at a 100-fold dilution) in the same manner as the above. The cells were stained with PE-Cy5-streptavidin, returned to room temperature and incubated for 20 minutes, and then examined using a confocal microscope. […] It was confirmed that cell surface HSP90 was internalized by the 6H8 antibody.

OT-I CD8+ T cells [3] = experiment: In vivo proliferation of transplanted CFSE-labeled OT-I CD8+ T cells; parameters: species or system mouse; details: for proliferation of transplanted OT-I CD8+ T cells: 3 μg fractions 15 to 19 (mixture), three days
Method: First, CFSE-labeled OT-I CD8^+ T cells were generated as follows: A 10 mM CFSE stock solution in DMSO was diluted with PBS to prepare a 10 μM CFSE solution. A pellet of splenocytes prepared in a 15-ml tube was thoroughly loosened by tapping, after which 2 ml of the 10 μM CFSE solution was added thereto, and the mixture was gently vortexed. After being allowed to stand at room temperature for 5 minutes, the cells were washed twice with PBS (5 ml).
The CFSE-labeled OT-I CD8^+ T cells were transplanted to recipient mice from the tail vein. The recipient mice used were a wild-type B6 mouse (WT B6) and a TAP1-deficient mouse [TAP1 KO (purchased from Jackson Laboratory, U.S.A.)]. At the same time, 3 μg of the fractions 15 to 19 (mixture), 3 μg of the fraction 33, or a mixture of the fraction 33 (3 μg) and the free 6H8 antibody (3 μg) was injected. Three days later, splenocytes of each recipient mouse were collected and examined for proliferation of the transplanted cells.
A mixture of the fractions 15 to 19 containing the 6H8-OVA conjugate was injected into recipient mice at a series of doses, and the proliferation of OT-I CD8^+ T cells was examined in the same manner as the above. As a result, higher doses of the mixture more potently promoted the proliferation of CD8^+ T cells, although this effect was observed even at 0.1 μg (upper panel of FIG. 8C).

OT-I CD8+ T cells [4] = experiment: In vitro cross-presentation assay with BMDC of normal and FcRγ KO mouse; assay type: cell-based; details: BMDC pulsed 3 hours, co-culture with OT-I CD8+ T cells, IFNγ ELISA
Method: (1) A bone marrow-derived dendritic cells (BMDCs) were established from a normal mouse and an FcRγ KO mouse (supplied by Professor Akira Shibuya, Immunology, Life System Medical Sciences, Majors of Medical Sciences, Graduate School of Comprehensive Human Sciences, University of Tsukuba) as described below. Bone marrow was recovered from a mouse femur and tibia, and 1×10^6 cells each were cultured in a 24-well plate using 2 ml/well of a complete RPMI containing 20 ng/ml recombinant mouse GM-CSF (R&D). Half of the medium was exchanged for a fresh medium on day 3 of cultivation, and the cells obtained on day 5 of cultivation were used as the BMDC. (2) BMDCs at Day 5 induced in a GM-CSF-dependent manner was stained with biotin-6H8 (2.5 μg/ml) and streptavidin-APC (0.2 μg/ml), and its fluorescence was determined using FACS Canto (BD).
(1) A pellet of 1×10^6 BMDC cells at Day 5 induced in a GM-CSF-dependent manner were prepared in a 15-ml tube. After adding 400 μl of an antigen (6H8-OVA, OVA, or OVA257-264) thereto, the tube was incubated with 5% CO2 at 37° C. for 3 hours. The cells were fixed in 0.5% para-formaldehyde, after which the cells were washed with 0.1 M glycine and then with RPMI; thereafter, the density was adjusted to 1×10^5 cells/ml. (2) Concurrently, OT-I CD8^+ T cells were purified and the density was adjusted to 1×10^5 cells/ml. […]

Molecule	effect of antibody pre-treatment on the cross-presentation effect of 6H8-OVA [1]	internalization of cell surface HSP90 (confocal microscope) ([2]; DC2.4, 20 minutes at room temperature)	time for the 6H8-HSP90 complex to disappear from the cell surface (enter into cells) ([2]; DC2.4, biotinylated 6H8 1 μg/ml, 37° C.)	proliferation of transplanted OT-I CD8+ T cells (OT-I CD8+ T cells [3]; TAP1-deficient mouse)	dose at which promotion of proliferation of OT-I CD8+ T cells was observed (OT-I CD8+ T cells [3]; series of doses injected into recipient mice) [µg]	proliferation of transplanted OT-I CD8+ T cells (OT-I CD8+ T cells [3]; wild-type B6 mouse)	cross-presentation potential of FcRγ KO mouse-derived dendritic cells compared with normal mouse-derived dendritic cells (OT-I CD8+ T cells [4])
B1	attenuated	internalized	about 10 minutes				
B2				did not induce the proliferation of CD8^+ T cells at all	≤ 0.1	proliferation of CD8^+ T cells was confirmed	significantly decreased
